Measurements as given in patent US20160114000A1 (Merck Sharp & Dohme, published 2016).
*1 amine or outer side, *2 acyl side, *3 side chain or, on linkers, in order; H or OH if unused. Where no end group is shown, it is not given here. Side-chain parts run from the residue outwards. [ ]: non-standard residue; d: D form. The star is where a group is joined. γGlu = O=C(O)[C@H](CCC(=O)[*:2])N[*:1]; Palmitoyl = CCCCCCCCCCCCCCCC(=O)*

Legend:
human GLP-1 receptor = human GLP-1 receptor (human, UniProt P43220 24-463); assay: cell-based or functional assay
human glucagon receptor = human glucagon receptor (human, UniProt P47871 26-477); assay: cell-based or functional assay
Sequence of human glucagon receptor (P47871 26-477): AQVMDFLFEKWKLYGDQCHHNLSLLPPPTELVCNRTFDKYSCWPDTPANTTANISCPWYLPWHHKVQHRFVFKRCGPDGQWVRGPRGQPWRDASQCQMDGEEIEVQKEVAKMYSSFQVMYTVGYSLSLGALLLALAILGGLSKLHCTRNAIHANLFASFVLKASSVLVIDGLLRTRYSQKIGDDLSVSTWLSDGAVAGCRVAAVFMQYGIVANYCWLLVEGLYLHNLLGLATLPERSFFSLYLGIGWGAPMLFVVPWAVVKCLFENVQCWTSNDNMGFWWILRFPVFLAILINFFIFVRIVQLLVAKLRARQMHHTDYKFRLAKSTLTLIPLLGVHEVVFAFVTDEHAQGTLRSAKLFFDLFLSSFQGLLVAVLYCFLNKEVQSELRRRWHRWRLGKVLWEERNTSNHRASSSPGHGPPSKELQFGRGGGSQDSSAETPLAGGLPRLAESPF

Binder	GLPR1 EC50 (nM) human; cAMP production (HitHunter cAMPXS), 20% human serum (human GLP-1 receptor)	GCGR EC50 (nM) human; cAMP production (HitHunter cAMPXS), 20% human serum (human glucagon receptor)	hGCGR/hGLP1R (hTone): ratio of cAMP EC50 at human GCGR to cAMP EC50 at human GLP1R (human glucagon receptor)
H[dS]QGTFTSDK([γGlu-Palmitoyl])SKYLDARAAQDFVQWLLDT-NH2 (N-terminus assumed; SMILES CCCCCCCCCCCCCCCC(=O)N[C@@H](CCC(=O)NCCCC[C@H](NC(=O)[C@H](CC(=O)O)NC(=O)[C@H](CO)NC(=O)[C@@H](NC(=O)[C@H](Cc1ccccc1)NC(=O)[C@@H](NC(=O)CNC(=O)[C@H](CCC(N)=O)NC(=O)[C@@H](CO)NC(=O)[C@@H](N)Cc1c[nH]cn1)[C@@H](C)O)[C@@H](C)O)C(=O)N[C@@H](CO)C(=O)N[C@@H](CCCCN)C(=O)N[C@@H](Cc1ccc(O)cc1)C(=O)N[C@@H](CC(C)C)C(=O)N[C@@H](CC(=O)O)C(=O)N[C@@H](C)C(=O)N[C@@H](CCCNC(=N)N)C(=O)N[C@@H](C)C(=O)N[C@@H](C)C(=O)N[C@@H](CCC(N)=O)C(=O)N[C@@H](CC(=O)O)C(=O)N[C@@H](Cc1ccccc1)C(=O)N[C@H](C(=O)N[C@@H](CCC(N)=O)C(=O)N[C@@H](Cc1c[nH]c2ccccc12)C(=O)N[C@@H](CC(C)C)C(=O)N[C@@H](CC(C)C)C(=O)N[C@@H](CC(=O)O)C(=O)N[C@H](C(N)=O)[C@@H](C)O)C(C)C)C(=O)O) [Co-agonist Peptide 1]	0.048 nM	0.042 nM	0.88 ratio
HXQGTFTSDKSKYLDERAAQDFVQWLXDT (D-Ser at 2; Lys 10 conjugated to γEγE-C16 (palmitoyl); methionine sulfone at 27; C-terminal amide) [Co-agonist Peptide 10]	0.02 nM	0.02 nM	1.1 ratio
H[dS]QGTFTSDK([γGlu-γGlu-Palmitoyl])SLYLDERAAQDFVQWLLDT-NH2 (N-terminus assumed; SMILES CCCCCCCCCCCCCCCC(=O)N[C@@H](CCC(=O)N[C@@H](CCC(=O)NCCCC[C@H](NC(=O)[C@H](CC(=O)O)NC(=O)[C@H](CO)NC(=O)[C@@H](NC(=O)[C@H](Cc1ccccc1)NC(=O)[C@@H](NC(=O)CNC(=O)[C@H](CCC(N)=O)NC(=O)[C@@H](CO)NC(=O)[C@@H](N)Cc1c[nH]cn1)[C@@H](C)O)[C@@H](C)O)C(=O)N[C@@H](CO)C(=O)N[C@@H](CC(C)C)C(=O)N[C@@H](Cc1ccc(O)cc1)C(=O)N[C@@H](CC(C)C)C(=O)N[C@@H](CC(=O)O)C(=O)N[C@@H](CCC(=O)O)C(=O)N[C@@H](CCCNC(=N)N)C(=O)N[C@@H](C)C(=O)N[C@@H](C)C(=O)N[C@@H](CCC(N)=O)C(=O)N[C@@H](CC(=O)O)C(=O)N[C@@H](Cc1ccccc1)C(=O)N[C@H](C(=O)N[C@@H](CCC(N)=O)C(=O)N[C@@H](Cc1c[nH]c2ccccc12)C(=O)N[C@@H](CC(C)C)C(=O)N[C@@H](CC(C)C)C(=O)N[C@@H](CC(=O)O)C(=O)N[C@H](C(N)=O)[C@@H](C)O)C(C)C)C(=O)O)C(=O)O) [Co-agonist Peptide 11]	0.06 nM	0.06 nM	0.91 ratio
HXQGTFTSDXSKYLDARAAQDFVQWLLDT (D-Ser at 2; para-aminomethyl phenylalanine (pAF) at 10 conjugated to γEγE-C16 (palmitoyl); C-terminal amide) [Co-agonist Peptide 12]	0.05 nM	0.05 nM	0.98 ratio
H[dS]QGTFTSDK([γGlu-γGlu-Palmitoyl])SKYLDARAAQDFVQWLLDT-NH2 (N-terminus assumed; SMILES CCCCCCCCCCCCCCCC(=O)N[C@@H](CCC(=O)N[C@@H](CCC(=O)NCCCC[C@H](NC(=O)[C@H](CC(=O)O)NC(=O)[C@H](CO)NC(=O)[C@@H](NC(=O)[C@H](Cc1ccccc1)NC(=O)[C@@H](NC(=O)CNC(=O)[C@H](CCC(N)=O)NC(=O)[C@@H](CO)NC(=O)[C@@H](N)Cc1c[nH]cn1)[C@@H](C)O)[C@@H](C)O)C(=O)N[C@@H](CO)C(=O)N[C@@H](CCCCN)C(=O)N[C@@H](Cc1ccc(O)cc1)C(=O)N[C@@H](CC(C)C)C(=O)N[C@@H](CC(=O)O)C(=O)N[C@@H](C)C(=O)N[C@@H](CCCNC(=N)N)C(=O)N[C@@H](C)C(=O)N[C@@H](C)C(=O)N[C@@H](CCC(N)=O)C(=O)N[C@@H](CC(=O)O)C(=O)N[C@@H](Cc1ccccc1)C(=O)N[C@H](C(=O)N[C@@H](CCC(N)=O)C(=O)N[C@@H](Cc1c[nH]c2ccccc12)C(=O)N[C@@H](CC(C)C)C(=O)N[C@@H](CC(C)C)C(=O)N[C@@H](CC(=O)O)C(=O)N[C@H](C(N)=O)[C@@H](C)O)C(C)C)C(=O)O)C(=O)O) [Co-agonist Peptide 5]	0.033 nM	0.03 nM	0.9 ratio
HXQGTXTSDKSKYLDERAAQDFVQWLLDT (D-Ser at 2; p-fluorophenylalanine (pFF) at 6; Lys 10 conjugated to γEγE-C16 (palmitoyl); C-terminal amide) [Co-agonist Peptide 9]	0.06 nM	0.05 nM	0.93 ratio
H[dS]QGTFTSDK([γGlu-γGlu-Palmitoyl])SKYLEARAAQDFVQWLLDT-NH2 (N-terminus assumed; SMILES CCCCCCCCCCCCCCCC(=O)N[C@@H](CCC(=O)N[C@@H](CCC(=O)NCCCC[C@H](NC(=O)[C@H](CC(=O)O)NC(=O)[C@H](CO)NC(=O)[C@@H](NC(=O)[C@H](Cc1ccccc1)NC(=O)[C@@H](NC(=O)CNC(=O)[C@H](CCC(N)=O)NC(=O)[C@@H](CO)NC(=O)[C@@H](N)Cc1c[nH]cn1)[C@@H](C)O)[C@@H](C)O)C(=O)N[C@@H](CO)C(=O)N[C@@H](CCCCN)C(=O)N[C@@H](Cc1ccc(O)cc1)C(=O)N[C@@H](CC(C)C)C(=O)N[C@@H](CCC(=O)O)C(=O)N[C@@H](C)C(=O)N[C@@H](CCCNC(=N)N)C(=O)N[C@@H](C)C(=O)N[C@@H](C)C(=O)N[C@@H](CCC(N)=O)C(=O)N[C@@H](CC(=O)O)C(=O)N[C@@H](Cc1ccccc1)C(=O)N[C@H](C(=O)N[C@@H](CCC(N)=O)C(=O)N[C@@H](Cc1c[nH]c2ccccc12)C(=O)N[C@@H](CC(C)C)C(=O)N[C@@H](CC(C)C)C(=O)N[C@@H](CC(=O)O)C(=O)N[C@H](C(N)=O)[C@@H](C)O)C(C)C)C(=O)O)C(=O)O) [Co-agonist Peptide 8]	0.02 nM	0.02 nM	0.9 ratio
HXQGTFTSDKSKYLDERAAQDFVQWLLDT (D-Ser at 2; Lys 10 conjugated to γEγE-C16 (palmitoyl); C-terminal amide) [Comparator Co-agonist Peptide 6]	0.007 nM	0.009 nM	1.3 ratio
